Assay results as given in the DeepSol protein solubility set.

Assay: soluble on expression in E. coli; label from the status in PepcDB or PDB records
For “PIGKATDNMYSYLALLQDDPTIQIVNQAQKAYVEKVAPSIAAMAGLPILSAGAPFKAGGRKNDPTGYTEVNKGKLTFRNAADLYLYPNTLVVVKATGEQLKEWLECSAGMFKQIDPTSDKPQSLIDWEGFRTYNFDVIDGVNYEYDLTKPARYDGECKLINPESHRVVNLTYQGKPVDPKAEFLIATNNYRAYGNKFPGTGDKHIVYASPDESRQILADYIKATSEKEGSVNPNADKNWRFVPI”, the “soluble on expression in E. coli” value was “not soluble”.
With “PKIAGIDLGTTYSSIGIYHAVTGETIILPDDLGKKSVPSVVAFLPNGTVLIGTRATEQQEHNPKRTIYDAKRFIGRNFEKNNKDFLSDQKRYPFKINLDSEGKAFFEIPLDSGTKNVYPEEIGSLIIGYLKSAAAKHLGVTLGQVVISCPAEFNEKQRNFTAKAAEIAEMEVRRVISEPTAAALAYGLHKKQGVENVVVVDLGGGTLDVSVLWLQGGVFVTQAMAGNNRLGGQDFNDRVQKHLISKIAEKFGKTIDNKEDIQQIRMEVEKGKIRLTNVPSTTISLNLKTVGKWNYELTRDEFETLNGDLLKAIELPITAALADANLDTADVDEIVLVGGSTQVPAVRKIVGRFFKKSANYGVDPELAVVTGASVQAGVIGGGWPLQVAAMELPAKRRKRHFFTEEQKENEKDRTISEL” the “soluble on expression in E. coli” value was “not soluble”.
With “PKPPYSYIALITMAIRDSAGGRLTLAEINEYLMGKFPFFRGSYTGWRNSVRHNLSLNDCFVKVLRDPSRPWGKDNYWMLNPNSEYTFADGVFRRRRYRLS” the “soluble on expression in E. coli” value was “soluble”.
For “PLGSDSAKLIFINQINDCKDGQKLRFLGCVQSYKNGILRLIDGSSSVTCDVTVVLPDVSIQKHEWLNIVGRKRQDGIVDVLLIRSAVGINLPRYRQMVSERQKCD”, the “soluble on expression in E. coli” value was “soluble”.
For “PLKIGPPGHRYAFPLYSSKNLERDDLRGIRRLVIVLHGVKRNAASIHGTVTALFAANPERAEDTLVIAPKFASAIDAGFAAMPAWRRASWEDGELSMQARGRPAPVSSLQVLDDLLRELSDSSRLPALRTIVLAGHSGGAQLVQRYAVLNSLDETL”, the “soluble on expression in E. coli” value was “not soluble”.
In the case of “PLNRLGHKIYQHSGKWLQETAAEKLNQRDQLINPGHAQVLILGMGRIGTGAYDELRARYGKISLGIEIREEAAQQHRSEGRNVISGDATDPDFWERILDTGHVKLVLLAMPHHQGNQTALEQLQRRNYKGQIAAIAEYPDQLEGLLESGVDAAFNIYSEAGSGFARHVCKQLEPQFTSIK”, the “soluble on expression in E. coli” value is reported as “soluble”.
With “PPGTVDKKMVEKCWKLMDKVVRLCQNPKLALKNSPPYILDLLPDTYQHLRTILSRYEGKMETLGENEYFRVFMENLMKKTKQTISLFKEGKERMYEENSQPRRNLTKLSLIFSHMLAELKGIFPSGLFQGDTFRITKADAAEFWRKAFGEKTIVPWKSFRQALHEVHPISSGLEAMALKSTIDLTCNDYISVFEFDIFTRLFQPWSSLLRNWNSLAVTHPGYMAFLTYDEVKARLQKFIHKPGSYIFRLSCTRLGQWAIGYVTADGNILQTIPHNKPLFQALIDGFREGFYLFPDGRNQNPDLTGLCEPTPQDHIKVTQEQYELYCEMGSTFQLCKICAENDKDVKIEPCGHLMCTSCLTSWQESEGQGCPFCRCEIKGTEPIVVDPF” the “soluble on expression in E. coli” value was “soluble”.
In the case of “PREIVDFHAKLINDTPLSTYVGFLDDLQEHDEIDNARALSGIPGVVIVGEQDAVTPQSQSERIVSLWSDAGLQIAPNAGHMIILEQPAIVNKAIDQMVQQAAQNVQKDDA”, the “soluble on expression in E. coli” value is reported as “not soluble”.
In the case of “PREVLTGGHSVSAPQENRIYVMDSVFMHLTESRVHVYDYTNGKFLGMVPTAFNGHVQVSNDGKKIYTMTTYHERITRGKRSDVVEVWDADKLTFEKEISLPPKRVQGLNYDGLFRQTTDGKFIVLQNASPATSIGIVDVAKGDYVEDVTAAAGCWSVIPQPNRPRSFMTICGDGGLLTINLGEDGKVASQSRSKQMFSVKDDPIFIAPALDKDKAHFVSYYGNVYSADFSGDEVKVDGPWSLLNDEDKAKNWVPGGYNLVGLHRASGRMYVFMHPDGKEGTHKFPAAEIWVMDTKTKQRVARIPGRDALSMTIDQQRNLMLTLDGGNVNVYDISQPEPKLLRTIEGAAEASLQVQFHPVGGT”, the “soluble on expression in E. coli” value is reported as “soluble”.
For “PVMHPHGAPPNHRPWQMKDLQAIKQEVSQAAPGSPQFMQTIRLAVQQFDPTAKDLQDLLQYLCSSLVASLHHQQLDSLISEAETRGITSYNPLAGPLRVQANNPQQQGLRREYQQLWLAAFAALPGSAKDPSWA”, the “soluble on expression in E. coli” value was “soluble”.
For “PVSQPDAPGHQRKVVSWIDVYTRATCQPREVVVPLTVELMGTVAKQLVPSCVTVQRCGGCCPDDGLECVPTGQHQVRMQILMIRYPSSQLGEMSLEEHSQCECRPKKKDSAVKPDSPRPLCPRCTQHHQRPDPRTCRCRCRRRSFLRCQGRGLELNPDTCRCRKLRR”, the “soluble on expression in E. coli” value was “soluble”.
With “PVTNMAELDAMIARVKKAQEEFATYSQEQVDKIFRAASLAANQARIPLAQQAVEESGMGIVEDKVIKNHFASEFIYNKYKDEQTCGILEEDDNLGTMTIAEPVGIICGIVPTTNPTSTAIFKSLISLKTRNGIIFSPHPRAKNSTNDAAKLVLDAAVAAGAPKDIIGWIDQPSVELSNALMKHDDIALILATGGPGMVKAAYSSGKPAIGVGAGNVPVVIDETADIKRAVASVLMSKTFDNGVVCASE” the “soluble on expression in E. coli” value was “not soluble”.
For “QAAVTDYYKTLHLFFISPEKGKEFERSTSIRRRVKAMPHGVNRLFSSLYYYYTLIQERATPRLQRLLDQLEADYPQNTIPETLRQHLRKDSRR”, the “soluble on expression in E. coli” value was “not soluble”.
In the case of “QAMFERFTDRARRVIVLAQEEARMLNHNYIGTEHILLGLIHEGEGVAAKALESMGISLDAVRQEVEEIIGQGSQPTTGHIPFTPRAKKVLELSLREGLQMGHKYIGTEFLLLGLIREGEGVAAQVLVKLGADLPRVRQQVIQLLSG”, the “soluble on expression in E. coli” value is reported as “soluble”.
In the case of “QCTNGFDLDRQSGQCLDIDECRTIPEACRGDMMCVNQNGGYLCIPRTNPVYRGPYSNPYSTPYSGPYPAAAPPLSAPNYPTISRPLICRFGYQMDESNQCVDVDECATDSHQCNPTQICINTEGGYTCSCTDGYWLLEGQCLDIDECRYGYCQQLCANVPGSYSCTCNPGFTLNEDGRSCQDVNECATENPCVQTCVNTYGSFICRCDPGYELEEDGVHCSDMDECSFSEFLCQHECVNQPGTYFCSCPPGYILLDDNRSCQDINECEHRNHTCNLQQTCYNLQGGFKCIDPIRCEEPYLRISDNRCMCPAENPGCRDQPFTILYRDMDVVSGRSVPADIFQMQATTRYPGAYYIFQIKSGNEGREFYMRQTGPISATLVMTRPIKGPREIQLDLEMITVNTVINFRGSSVIRLRIYVSQYPF”, the “soluble on expression in E. coli” value is reported as “soluble”.
For “QGMQTKKAFLYVFNTMSDWEYGYLIAELNSGRYFKKDLAPLKVITVGANKEMITTMGGLRIKPDISLDECTLESKDLLILPGGTTWSEEIHQPILERIGQALKIGTIVAAICGATDALANMGYLDTRKHTSNNLEYTKMVCPNYKGEKFYELGPAVSDANLVTASGIAPLEFAMEVLKKIDVFTLDALHSWYNLNKTHKPEYFFQLMNSINK”, the “soluble on expression in E. coli” value was “soluble”.
In the case of “QITYWKERQRRKTIRAEEIRGLIYRIWKIYPSLLGQELLESTIFVFMVLAAVARLGAEDVAVYKLLDLVCGMLELPVYAYAAATQTYALQNHAAGKKAAVRSYEK”, the “soluble on expression in E. coli” value is reported as “not soluble”.
In the case of “QKPYKETYGISHITRHDMLQIPEQQKNEKYQVPEFDSSTIKNISSAKGLDVWDSWPLQNADGTVANYHGYHIVFALAGDPKNADDTSIYMFYQKVGETSIDSWKNAGRVFKDSDKFDANDSILKDQTQEWAGSATFTSDGKIRLFYTDFSGKHYGKQTLTTAQVNVSASDSSLNINGVEDYKSIFDGDGKTYQNVQQFIDEGNYSSGDNHTLRDPHYVEDKGHKYLVFEANTGTEDGYQGEESLFNKAYYGKSTSFFRQESQKLLQSDKKRTAELANGALGMIELNDDYTLKKVMKPLIASNTVTDEIERANVFKMNGKWYLFTDSRGSKMTIDGITSNDIYMLGYVSNSLTGPYKPLNKTGLVLKMDLDPNDVTFTYSHFAVPQAKGNNVVITSYMTNRGFYADKQSTFAPSFLLNIKGKKTSVVKDSILEQGQLTVN”, the “soluble on expression in E. coli” value is reported as “soluble”.
With “QLLKVCMKLPKIDWYLGLSCPSNDMPLYLMRLFSRKPVVQMIHGPVGVARSSGYCLVKASAIYYLSNTRESLINALQAYLKTPKPATERYWSTLNASTFVNGLSRERWPKQANPISNRVFWAASLLKWKNVDLLLDALTLENTTTIQSTICYIKPNVPGVEYSTPDFNTKGVDWYESPNNLNELRAQCGVFVSTSVNEP” the “soluble on expression in E. coli” value was “not soluble”.
With “QLSSFETCAEKEESANTTESAIFEYHCEMSFDPNLLHNNGHNGYPNGTSAALRETGVIEKLLTSYGFIQCSERQARLFFHCSQYNGNLQDLKVGDDVEFEVSSDRRTGKPIAVKLVKIKQEILPEERMNGQVVCAVPHNLESKSPAAPGQSPTGSVCYERNGEVFYLTYTPEDVEGNVQLETGDKINFVIDNNKHTGAVSARNIMLLKKKQARCQGVVCAMKEAFGFIERGDVVKEIFFHYSEFKGDLETLQPGDDVEFTIKDRNGKEVATDVRLLPQGTVIFEDISIEHFEGTVTKVIPKVPSKNQNDPLPGRIKVDFVIPKELPFGDKDTKSKVTLLEGDHVRFNISTDRRDKLERATNIEVLSNTFQFTNEAREMGVIAAMRDGFGFIKCVDRDVRMFFHFSEILDGNQLHIADEVEFTVVPDMLSAQRNHAIRIKKLPKGTVSFHSHSDHRFLGTVEKEATFSNPKTTSPNKGKEKEAEDGIIAYDDCGVKLTIAFQAKDVEGSTSPQIGDKVEFSISDKQRPGQQVATCVRLLGRNSNSKRLLGYVATLKDNFGFIETANHDKEIFFHYSEFSGDVDSLELGDMVEYSLSKGKGNKVSAEKVNKTHSVNGITEEADPTIYSGKVIRPLRSVDPTQTEYQGMIEIVEEGDMKGEVYPFGIVGMANKGDCLQKGESVKFQLCVLGQNAQTMAYNITPLRRATVECVKDQFGFINYEVGDSKKLFFHVKEVQDGIELQAGDEVEFSVILNQRTGKCSACNVWRVCEGPKAVAAPRPDRLVNRLKNITLDDASAPRLMVLRQPRGPDNSMGFGAERKIRQAGVID” the “soluble on expression in E. coli” value was “soluble”.
For “QNDLMIQSQVKFYTILFSARRATPELEIPEGSFYNGIRGYNLFVAKKDRRTGMLHDMMIYDHSQGFADARIIVADSGKLKMDEGKTFLTLMLHSGETFQNLRSQQTESNAPTPYMRERFRTKEIVIPFDANFSLMDEGAMRGEYVGKNLIQLQRFIDTVTLRVDSASFRNANNLYIQTYNAR”, the “soluble on expression in E. coli” value was “not soluble”.
